Measurements from patent publication US20250387492A1, “HSP90-TARGETING CONJUGATES AND FORMULATIONS THEREOF” (Fusion Pharmaceuticals Inc., priority 2018, published 2025).
Entries after “also recorded” stand apart in the source; their conditions may differ.

Tests used:
[1] = Biodistribution in H69 tumor model; conditions: mouse, in vivo, 5 mg/kg
Excerpt: (§1) In other studies, biodistribution of the conjugates was studied with H460 and H69 tumor models.

[2] = Lu levels in tumor, kidney and liver of mice at 0.5 mg/kg; conditions: for Tumor uptake (comparison): vs Conjugate 1 and Conjugate 2
[3] = Biodistribution in H460 tumor model; conditions: mouse, in vivo, 5 mg/kg
Excerpt: as §1

H460 tumor model mice = assay: Biodistribution in H460 tumor model; conditions: 5 mg/kg
Excerpt: as §1

H69 tumor model mice = assay: Biodistribution in H69 tumor model; conditions: H69 tumor model, 5 mg/kg, 48 h, individual animals
Excerpt: as §1

in vivo = conditions: female, Nude, mouse, iv, 3.7 MBq, total radioactivity
Description: Radioactive conjugate accumulation was measured in tumor, plasma and healthy tissues of NCI-H460 tumor-bearing mice (lung cancer). […] For each tissue, the percent injected dose per gram of tissue % ID/g was calculated.

[4] = Concentration in H460 tumor, H460 tumor model, individual animals
[5] = Concentration in Mouse kidney, H460 tumor model, individual animals
[6] = Concentration in Mouse plasma, H460 tumor model, individual animals

## CCNC(=O)c1nnc(-c2cc(C(C)C)c(O)cc2O)n1-c1ccc(CN2CCN(C(=O)CCNC(=O)[C@@H](CCC(=O)O)NC(=O)[C@@H](CCC(=O)O)NC(=O)[C@@H](CCC(=O)O)NC(=O)CN3CCN4CCN5CCN(CC3)CC(=O)[O][Lu]([O]C(=O)C4)[O]C(=O)C5)CC2)cc1 [Conjugate 2]
[1]; Concentration in H69 tumor, H69 tumor model, individual animals
  level at time molar at 24 h: 240 nM
[1]; Tumor Levels, H69, 5 mg/kg, H69
  level at time molar at 24 h: 330 nM
[2]
  Average Lu in kidney: 2.86 % ID/g
  Average Lu in tumor: 0.92 % ID/g
[3]; [4]
  level at time molar at 1 h: 1170 nM
  level at time molar at 48 h: 220 nM
[3]; [5]
  level at time molar at 1 h: 1550 nM
  level at time molar at 24 h: 1450 nM
  level at time molar at 48 h: 540 nM
[3]; Concentration in Mouse liver, H460 tumor model, individual animals
  level at time molar at 1 h: 16 nM
[3]; Tumor Levels, H460 (2), H460 study (2)
  level at time molar at 24 h: 650 nM
H460 tumor model mice; H460 and H69 tumor models
  Clearance from plasma: clear rapidly from plasma; also recorded: slightly superior
H460 tumor model mice; H460 and H69 tumor models, Conjugate 1 vs Conjugate 2
  Tumor retention (comparison): similar
H460 tumor model mice; H460 tumor model, 48 h, individual animals
  Concentration in Mouse kidney: 540 nM

## CCNC(=O)c1nnc(-c2cc(C(C)C)c(O)cc2O)n1-c1ccc(CN2CCN(C(=O)CCNC(=O)[C@@H](CCCCN)NC(=O)[C@@H](CCCCN)NC(=O)[C@@H](CCCCN)NC(=O)CN3CCN(CC(=O)O)CCN(CC(=O)O)CCN(CC(=O)O)CC3)CC2)cc1 [Conjugate 3]
[1]; Concentration in H69 tumor, H69 tumor model, 48 h, individual animals
  level at time molar at 48 h: 200 nM
[1]; Concentration in Mouse liver, H69 tumor model, individual animals
  level at time molar at 24 h: 80 nM
[1]; Concentration in Mouse plasma, H69 tumor model, 1 h, individual animals
  level at time molar at 1 h: 1220 nM
[1]; Concentration in Mouse plasma, H69 tumor model, individual animals
  level at time molar at 24 h: 38 nM
H69 tumor model mice
  Concentration in H69 tumor: 200 nM
[3]; [4]
  level at time molar at 48 h: 91 nM
[3]; [5]
  level at time molar at 1 h: 4520 nM
  level at time molar at 48 h: 4290 nM
[3]; [6]
  level at time molar at 24 h: 11 nM
  level at time molar at 48 h: 11 nM
H460 tumor model mice; H460 tumor model, 1 h, individual animals
  Concentration in Mouse liver: 70 nM

## CCNC(=O)c1nnc(-c2cc(C(C)C)c(O)cc2O)n1-c1ccc(CN2CCN(C(=O)CCNC(=O)CC[C@@H](NC(=O)CC[C@@H]3C(=O)[O][Lu]4[O]C(=O)CN5CCN(CC(=O)O)CCN3CCN(CC5)CC(=O)[O]4)C(=O)N3CCN(Cc4ccc(-n5c(C(=O)NCC)nnc5-c5cc(C(C)C)c(O)cc5O)cc4)CC3)CC2)cc1 [Conjugate 9]
[2]
  Average Lu in Liver: 2.92 % ID/g
  Average Lu in kidney: 2.40 % ID/g
  Average Lu in tumor: 5.73 % ID/g
  Tumor uptake (comparison): noticeably higher than Conjugate 1 and Conjugate 2

## CCNC(=O)c1nnc(-c2cc(C(C)C)c(O)cc2O)n1-c1ccc(CN2CCN(C(=O)CCNC(=O)[C@@H](CCC(=O)O)NC(=O)[C@@H](CCC(=O)O)NC(=O)[C@@H](CCC(=O)O)NC(=O)COCCOCCNC(=O)CCCCn3cc(CN(CCCNC(=O)CC[C@H](C(=O)O)N4CCN5CCN6CCN(CC4)CC(=O)[O][Lu]([O]C(=O)C6)[O]C(=O)C5)C(=O)CCCNC(=O)CCCc4ccc(I)cc4)nn3)CC2)cc1 [Conjugate 10]
[2]
  Average Lu in Liver: 1.51 % ID/g
  Average Lu in kidney: 11.18 % ID/g
  Average Lu in tumor: 8.49 % ID/g
  Tumor uptake (comparison): noticeably higher than Conjugate 1 and Conjugate 2

## CCNC(=O)c1nnc(-c2cc(C(C)C)c(O)cc2O)n1-c1ccc(CN2CCN(C(=O)CCNC(=O)[C@@H](CCC(=O)O)NC(=O)[C@@H](CCC(=O)O)NC(=O)[C@@H](CCC(=O)O)NC(=O)CN3CCN(CC(=O)O)CCN(CC(=O)O)CCN(CC(=O)O)CC3)CC2)cc1 [^177Lu-2, metal not drawn]
In vivo; Radioactivity in Bone Marrow
  tissue uptake at 6 h: 0.01 %ID/g
In vivo; Radioactivity in Brain
  tissue uptake at 6 h: 0.01 %ID/g
In vivo; Radioactivity in Eyes
  tissue uptake at 6 h: 0.12 %ID/g
In vivo; Radioactivity in Kidney
  tissue uptake at 6 h: 4.29 %ID/g
In vivo; Radioactivity in Liver
  tissue uptake at 6 h: 0.33 %ID/g
In vivo; Radioactivity in Tumor
  tissue uptake at 6 h: 1.21 %ID/g
